# Measured values from patent US7067474B1, “Agents for treating human illnesses based on β-catenin, and the production and use thereof” (Max-Delbruck-Centrum fur Molekulare Medizin, priority 1998, dated 2006).
# Substitutions are numbered along the chain they refer to. Where no end group is shown, it is not given here.
# B1: human β-catenin (Leu218-Leu781) mutant His 260 to alanine, Gal-4 activation domain fusion (other, not shown: large carriers; small tags and cut ends)
# chain: LHNLSHHREGLLAIFKSGGIPALVKMLGSPVDSVLFYAITTLANLLLHQEGAKMAVRLAGGLQKMVALLNKTNVKFLAITTDCLQILAYGNQESKLIILASGGPQALVNIMRTYTYEKLLWTTSRVLKVLSVCSSNKPAIVEAGGMQALGLHLTDPSQRLVQNCLWTLRNLSDAATKQEGMEGLLGTLVQLLGSDDINVVTCAAGILSNLTCNNYKNKMMVCQVGGIEALVRTVLRAGDREDITEPAICALRHLTSRHQEAEMAQNAVRLHYGLPVVVKLLHPPSHWPLIKATVGLIRNLALCPANHAPLREQGAIPRLVQLLVRAHQDTQRRTSMGGTQQQFVEGVRMEEIVEGCTGALHILARDVHNRIVIRGLNTIPLFVQLLYSPIENIQRVAAGVLCELAQDKEAAEAIEAEGATAPLTELLHSRNEGVATYAAAVLFRMSEDKPQDYKKRLSVELTSSLFRTEPMAWNETADLGLDIGAQGEPLGYRQDDPSYRSFHSGGYGQDALGMDPMMEHEMGGHHPGADYPVDGLPDLGHAQDLMDGLPPGDSNQLAWFDTDL
# B2: human β-catenin (Leu218-Leu781) mutant Lys 354 to alanine, Gal-4 activation domain fusion (other, not shown: large carriers; small tags and cut ends)
# chain: B1 chain with A43H, K137A
# B3: 11–27: LEF-1 fragment amino acids 11–27, Lex-A hybrid; minimum binding domain for β-catenin (protein)
# chain: MKALTARQQEVFDLIRDHISQTGMPPTRAEIAQRLGFRSPNAAEEHLKALARKGVIEIVSGASRGIRLLQEEEEGLPLVGRVAAGEPLLAQQHIEGHYQVDPSLFKPNADFLLRVSGMSMKDIGIMDGDLLAVHKTQDVRNGQVVVARIDDEVTVKRLKKQGNKVELLPENSEFKPIVVDLRQQSFTIEGLAVGVIRNGDWLGDPELCATDEMIPFKDE
# B4: 11–23: LEF-1 fragment amino acids 11–23, Lex-A hybrid (protein)
# chain: MKALTARQQEVFDLIRDHISQTGMPPTRAEIAQRLGFRSPNAAEEHLKALARKGVIEIVSGASRGIRLLQEEEEGLPLVGRVAAGEPLLAQQHIEGHYQVDPSLFKPNADFLLRVSGMSMKDIGIMDGDLLAVHKTQDVRNGQVVVARIDDEVTVKRLKKQGNKVELLPENSEFKPIVVDLRQQSFTIEGLAVGVIRNGDWLGDPELCATDEMIP
# B5: 17–34: LEF-1 fragment amino acids 17–34, Lex-A hybrid (protein)
# chain: MKALTARQQEVFDLIRDHISQTGMPPTRAEIAQRLGFRSPNAAEEHLKALARKGVIEIVSGASRGIRLLQEEEEGLPLVGRVAAGEPLLAQQHIEGHYQVDPSLFKPNADFLLRVSGMSMKDIGIMDGDLLAVHKTQDVRNGQVVVARIDDEVTVKRLKKQGNKVELLPENSEFKPIVVDLRQQSFTIEGLAVGVIRNGDWLATDEMIPFKDEGDPQKEK
# Key:
# β-catenin/TCF-4 complex = assay: ELISA with synthetic peptides: formation of the β-catenin/TCF-4 complex; format: binding; conditions: synthetic TCF4 peptides, analogous to LEF-1 peptides, which inhibit specifically
# β-catenin = molecular target: T1, β-catenin (Homo sapiens, UniProt P35222); assay: yeast-2-hybrid system: interaction of LEF-1 fragments with β-catenin (β-galactosidase reporter activity); format: binding; conditions: LEF-1 fragments as Lex-A hybrids
# T1 construct: expressed in transfected cells; host or cells: yeast (two-hybrid system, Clontech)
# T1 sequence (P35222 1-781): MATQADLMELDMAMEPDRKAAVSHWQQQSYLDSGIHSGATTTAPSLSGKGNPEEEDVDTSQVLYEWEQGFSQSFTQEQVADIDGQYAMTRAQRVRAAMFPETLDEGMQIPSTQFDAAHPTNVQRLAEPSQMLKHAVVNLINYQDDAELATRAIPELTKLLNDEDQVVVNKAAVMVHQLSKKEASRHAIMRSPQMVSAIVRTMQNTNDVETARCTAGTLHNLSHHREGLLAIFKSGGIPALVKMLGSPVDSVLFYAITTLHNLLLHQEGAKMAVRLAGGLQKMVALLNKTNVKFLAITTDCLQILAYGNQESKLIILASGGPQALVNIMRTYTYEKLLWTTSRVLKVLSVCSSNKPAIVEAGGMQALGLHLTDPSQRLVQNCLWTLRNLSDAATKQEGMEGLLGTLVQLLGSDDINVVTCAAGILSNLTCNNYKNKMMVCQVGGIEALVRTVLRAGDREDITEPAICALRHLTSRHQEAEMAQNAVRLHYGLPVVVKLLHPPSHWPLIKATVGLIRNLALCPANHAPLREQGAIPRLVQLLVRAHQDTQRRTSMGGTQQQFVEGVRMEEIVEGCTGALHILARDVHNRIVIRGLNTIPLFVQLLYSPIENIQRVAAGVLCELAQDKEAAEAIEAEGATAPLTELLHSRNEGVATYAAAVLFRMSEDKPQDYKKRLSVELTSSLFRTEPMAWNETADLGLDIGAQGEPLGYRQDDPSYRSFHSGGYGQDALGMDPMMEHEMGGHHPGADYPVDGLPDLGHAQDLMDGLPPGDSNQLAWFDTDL
# Procedure: The ‘yeast-2-hybrid system’ was used for identifying the minimum binding domain (FIG. 1). It was possible to limit the minimum binding domain to the N-terminal amino acids 11–27 of LEF-1 which corresponds t) the amino acids 7–29 in TCF-4 (FIG. 2). The interaction of N-terminal LEF-1 fragments with β-catenin was detected by means of activating a lacZ reporter gene (s. example).
# The interaction between the partial domains of LEF-1 and β-catenin was analyzed in the yeast-2 hybrid system by determining the activity of β-galactosidase according to information of the producer (Clontech) (FIG. 1). For this purpose the DNA coding for the N-terminal partial domains of LEF-1 was inserted into the cloning site of the Lex-A DNA binding domain which contains vector BTM 116 and checked by sequencing. The DNA fragments of LEF-1 were prepared by a polymerase chain reaction (PCR) and incubation with restriction endonucleases. The DNA coding for β-catenin was cloned into the vector pGAD424 (Clontech) for the activation domain of GAL-4 (Behrens et al. 1996). The β-galactosidase activities of independent experiments were averaged (or comparing the interaction of the hybrids.
# The specificity of the interaction of the LEF-1 hybrids with β-catenin was checked by means of the β-galactosidase activity of yeasts producing the LEF hybrids and the GAL-4 activation domain without β-catenin (FIG. 1). The expression of the LEF-1 hybrids was checked in an immunoblot with yeast cell lysates by antibodies (Clontech) as against the Lex-A domain of the hybrids. Equal yeast quantities were used for preparing the lysates after determining the optical density of the cultures.
# The interaction of fragments of the binding domain of LEF-1 with β-catenin was analyzed by means of the β-galactosidase reporter activity in the yeast-2-hybrid system. […] Accordingly, the minimum binding domain of LEF-1 for β-catenin consists of 17 amino acids (11–27) showing an acidic character.
# [1] = molecular target: T2, LEF-1 amino acids 1-99 fused to Lex-A (vector BTM 116) (UniProt P0A7C2 1-202; P27782 1-99); assay: yeast 2-hybrid, β-galactosidase reporter; percent of wild type β-catenin
# T2 construct: Order of the fusion follows the vector; also called LEF-1/TCF-4
# Procedure: (§1) 4. Preparation and testing of mutants of β-catenin modulating the interaction with LEF-1, APC, conductin or E-cadherin The mutagenesis of β-catenin in the armadillo repeats 3–8 was carried out by means of the "mutagenesis kit" of the company Clontech according to the producer's record and the mutants were checked by sequencing (FIG. 5). In all mutants the original amino acid was substituted by alanine. For analyzing the interactions the cDNA of human β-catenin (armadillo repeat 3 up to the C-terminal end of the protein) coding for the amino acids Leu218–Leu7 µl or its mutants was cloned into the fusion vector for the activation domain of Gal-4 (pGAD424, Clontech). The cDNA for the binding domains of the interaction partners was cloned into the Lex-A fusion vector BTM 116. To this end, the cDNA of LEF-1 for the amino acids 1–99, conductin for the amino acids Ala342–ARG465; of human APC for the amino acids His1012–Glu1215 (APC 15 amino acid repeats) and for the amino acids Ser1259Asp 1400 (APC 20 amino acid repeats) and E-cadherin for the amino acids Gin773–Asp884 (cytoplasmatic domain) were amplified with the respective primers PCR. The interaction of the Lex-A hybrids with β-catenin and its mutants was quantified by means of the β-galactosidase reporter activity in the yeast 2-hybrid system (report: "Matchmaker". Clontech) (Tab. 2 and FIG. 6).
# [2] = molecular target: E-cadherin amino acids Gln773-Asp884 (cytoplasmatic domain) fused to Lex-A (vector BTM 116) (UniProt P0A7C2 1-202; P09803 773-884); assay: as above
# Procedure: as §1
# [3] = molecular target: human APC amino acids Ser1259-Asp1400 (APC 20 amino acid repeats) fused to Lex-A (vector BTM 116) (human); assay: as above
# [4] = molecular target: conductin amino acids Ala342-Arg465 fused to Lex-A (vector BTM 116) (UniProt P0A7C2); assay: as above
# [5] = molecular target: human APC amino acids His1012-Glu1215 (APC 15 amino acid repeats) fused to Lex-A (vector BTM 116) (human); assay: as above
# [6] = molecular target: T3, β-catenin produced recombinantly in bacteria with N-terminal histidine sequence (Homo sapiens (Human), UniProt P35222 2-781); assay: competition ELISA, LEF-1 coated, β-catenin in solution, detection with antibody PA2
# T3 construct: Soluble partner in the ELISA (50-100 ng), detected with antibody PA2
# T3 sequence: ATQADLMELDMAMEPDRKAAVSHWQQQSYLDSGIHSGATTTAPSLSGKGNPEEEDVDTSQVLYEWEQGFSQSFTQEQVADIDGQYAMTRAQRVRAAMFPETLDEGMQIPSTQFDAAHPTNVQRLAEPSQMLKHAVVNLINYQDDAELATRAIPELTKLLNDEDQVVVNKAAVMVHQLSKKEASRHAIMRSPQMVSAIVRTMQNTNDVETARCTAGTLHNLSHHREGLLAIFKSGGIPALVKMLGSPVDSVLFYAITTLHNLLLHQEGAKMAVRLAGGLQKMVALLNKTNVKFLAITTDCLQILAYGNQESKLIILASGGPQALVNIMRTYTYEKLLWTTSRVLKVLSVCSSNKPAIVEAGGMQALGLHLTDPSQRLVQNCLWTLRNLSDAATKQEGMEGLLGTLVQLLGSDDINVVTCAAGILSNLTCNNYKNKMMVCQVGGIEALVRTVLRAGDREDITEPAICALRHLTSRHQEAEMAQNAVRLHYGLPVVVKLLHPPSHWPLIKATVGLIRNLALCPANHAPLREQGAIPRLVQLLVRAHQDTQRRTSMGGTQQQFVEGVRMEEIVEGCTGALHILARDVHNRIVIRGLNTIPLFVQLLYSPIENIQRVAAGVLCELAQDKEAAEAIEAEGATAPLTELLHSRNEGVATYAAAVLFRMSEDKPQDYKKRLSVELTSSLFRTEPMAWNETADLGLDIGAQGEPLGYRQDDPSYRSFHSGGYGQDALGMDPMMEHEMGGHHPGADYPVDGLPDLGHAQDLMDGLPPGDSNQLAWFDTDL
molecule,measurement,setting,value
GGDDLGANDELISFKDEGEQEEK [7–29],inhibition of formation of the β-catenin/TCF-4 complex,β-catenin/TCF-4 complex,Analogous principles apply
Met21 up to Val 56: partial domain of LEF-1 covering Met21 up to Val 56,Binding to β-catenin (β-galactosidase reporter activity),β-catenin,does not show any binding activity
DLGANDELISFKDE [10–23],inhibition of formation of the β-catenin/TCF-4 complex,β-catenin/TCF-4 complex,Analogous principles apply
B1,share of the interaction with wild type β-catenin in percent,[1],50%
same,share of the interaction with wild type β-catenin in percent,[2],100%
same,share of the interaction with wild type β-catenin in percent,[3],40%
same,share of the interaction with wild type β-catenin in percent,[4],10%
same,share of the interaction with wild type β-catenin in percent,[5],100%
B2,share of the interaction with wild type β-catenin in percent,[1],38%
same,share of the interaction with wild type β-catenin in percent,[2],40%
same,share of the interaction with wild type β-catenin in percent,[4],43%
same,share of the interaction with wild type β-catenin in percent,[5],54%
B3,Binding to β-catenin (β-galactosidase reporter activity),β-catenin,does not result in a loss of bond
B4,Binding to β-catenin (β-galactosidase reporter activity),β-catenin,prevent the interaction
B5,Binding to β-catenin (β-galactosidase reporter activity),β-catenin,prevent the interaction
"GGDPELCATDEMIPFKDEGDPQKEK (peptide, UniProt P27782 10-34, looked up, range 10-34; the legend prints 10-34) [synthetic peptide of the minimum binding domain of LEF-1 (10-34)]",IC50,[6],4 µM
